# Test results reported in US10941182 (Amgen, dated 2021).
# Starred links: 1 amine or outer side, 2 acyl side, 3 side chain; linkers in the order of their positions; H or OH if unused. Non-standard residues stand in square brackets, D forms with d. Primed or numbered codes have the meaning given here. *: point of attachment. AC4Abu = α-carboxy-4-aminobutyric acid, O=C(C(CCN[*:1])C(=O)[*:3])[*:2]; Oic = O=C(O)[C@@H]1C[C@@H]2CCCC[C@@H]2N1; Phe(4-Cl) = N[C@@H](Cc1ccc(Cl)cc1)C(=O)O; dPhe(4-Cl) = N[C@H](Cc1ccc(Cl)cc1)C(=O)O; γGlu = O=C(O)[C@H](CCC(=O)[*:2])N[*:1]; d(β3hF) = N[C@@H](CC(=O)O)Cc1ccccc1; NMeR = CN[C@@H](CCCNC(=N)N)C(=O)O; Palmitoyl = CCCCCCCCCCCCCCCC(=O)*; αMeF = C[C@](N)(Cc1ccccc1)C(=O)O; β3hF = N[C@H](CC(=O)O)Cc1ccccc1; Cha = N[C@@H](CC1CCCCC1)C(=O)O; αMeP = C[C@@]1(C(=O)O)CCCN1; β3hP = O=C(O)C[C@@H]1CCCN1; Pip = O=C(O)[C@@H]1CCCCN1; Nle = CCCC[C@H](N)C(=O)O; Pip′ = not defined here; AEEA = NCCOCCOCC(=O)O; Aib = CC(C)(N)C(=O)O; Inp = O=C(O)C1CCNCC1; Nip = nipecotic acid
# T1: human APJ receptor (human, UniProt P35414 1-380)
# T1 sequence (looked up): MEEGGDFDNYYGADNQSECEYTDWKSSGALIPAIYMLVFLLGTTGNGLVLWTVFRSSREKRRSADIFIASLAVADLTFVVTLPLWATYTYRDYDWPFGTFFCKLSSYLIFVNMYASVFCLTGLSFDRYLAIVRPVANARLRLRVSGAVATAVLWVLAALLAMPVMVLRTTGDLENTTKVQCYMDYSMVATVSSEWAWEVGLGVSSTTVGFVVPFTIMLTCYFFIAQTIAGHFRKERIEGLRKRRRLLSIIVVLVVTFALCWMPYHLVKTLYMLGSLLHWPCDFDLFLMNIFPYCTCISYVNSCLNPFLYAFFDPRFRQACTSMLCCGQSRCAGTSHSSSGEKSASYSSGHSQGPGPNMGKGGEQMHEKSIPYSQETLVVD
# T2: rat APJ receptor (rat, UniProt Q9JHG3 1-377)
# T2 sequence (looked up): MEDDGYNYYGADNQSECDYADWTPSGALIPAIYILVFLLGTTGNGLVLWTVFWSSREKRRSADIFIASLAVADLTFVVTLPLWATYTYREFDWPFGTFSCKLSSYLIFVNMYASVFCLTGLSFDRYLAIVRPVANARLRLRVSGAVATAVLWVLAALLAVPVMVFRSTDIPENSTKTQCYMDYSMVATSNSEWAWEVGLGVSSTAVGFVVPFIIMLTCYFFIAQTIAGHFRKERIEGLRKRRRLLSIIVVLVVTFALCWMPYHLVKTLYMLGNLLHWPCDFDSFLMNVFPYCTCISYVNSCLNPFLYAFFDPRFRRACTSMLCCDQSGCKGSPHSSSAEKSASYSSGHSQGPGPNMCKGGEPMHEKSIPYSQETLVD
# Experiments:
# [1] = target: T1, human APJ receptor; assay: cell-based or functional assay
# [2] = target: T2, rat APJ receptor; assay: cell-based or functional assay
EC50 Human APJ Receptor [1] [nM],EC50 Rat APJ Receptor [2] [nM],Binder
2.96,32.3,Palmitoyl-[γGlu][AEEA][AEEA][dQ]RP[NMeR][Cha]SHKG[Oic][Nle][Inp][dPhe(4-Cl)]-OH (SMILES CCCCCCCCCCCCCCCC(=O)N[C@@H](CCC(=O)NCCOCCOCC(=O)NCCOCCOCC(=O)N[C@H](CCC(N)=O)C(=O)N[C@@H](CCCNC(=N)N)C(=O)N1CCC[C@H]1C(=O)N(C)[C@@H](CCCNC(=N)N)C(=O)N[C@@H](CC1CCCCC1)C(=O)N[C@@H](CO)C(=O)N[C@@H](Cc1c[nH]cn1)C(=O)N[C@@H](CCCCN)C(=O)NCC(=O)N1[C@H](C(=O)N[C@@H](CCCC)C(=O)N2CCC(C(=O)N[C@H](Cc3ccc(Cl)cc3)C(=O)O)CC2)C[C@@H]2CCCC[C@@H]21)C(=O)O) [SEQ ID NO: 603]
3.44,3.25,Palmitoyl-[γGlu][AEEA][AEEA][dQ]RP[NMeR][Cha]SHKG[Oic][Nle][Pip′][dPhe(4-Cl)]-OH [SEQ ID NO: 601]
1.66,4.46,Palmitoyl-[γGlu][AEEA][AEEA][dQ]RP[NMeR][Cha]SHKG[Oic][Nle][β3hP][dPhe(4-Cl)]-OH (SMILES CCCCCCCCCCCCCCCC(=O)N[C@@H](CCC(=O)NCCOCCOCC(=O)NCCOCCOCC(=O)N[C@H](CCC(N)=O)C(=O)N[C@@H](CCCNC(=N)N)C(=O)N1CCC[C@H]1C(=O)N(C)[C@@H](CCCNC(=N)N)C(=O)N[C@@H](CC1CCCCC1)C(=O)N[C@@H](CO)C(=O)N[C@@H](Cc1c[nH]cn1)C(=O)N[C@@H](CCCCN)C(=O)NCC(=O)N1[C@H](C(=O)N[C@@H](CCCC)C(=O)N2CCC[C@H]2CC(=O)N[C@H](Cc2ccc(Cl)cc2)C(=O)O)C[C@@H]2CCCC[C@@H]21)C(=O)O) [SEQ ID NO: 600]
1.25,2.49,Palmitoyl-[γGlu][AEEA][AEEA][dQ]RP[NMeR][Cha]SHKG[Oic][Nle][Pip′][αMeF]-OH [SEQ ID NO: 609]
0.722,1.57,Palmitoyl-[γGlu][AEEA][AEEA][dQ]RP[NMeR][Cha]SHKG[Oic][Nle][β3hP][αMeF]-OH (SMILES CCCCCCCCCCCCCCCC(=O)N[C@@H](CCC(=O)NCCOCCOCC(=O)NCCOCCOCC(=O)N[C@H](CCC(N)=O)C(=O)N[C@@H](CCCNC(=N)N)C(=O)N1CCC[C@H]1C(=O)N(C)[C@@H](CCCNC(=N)N)C(=O)N[C@@H](CC1CCCCC1)C(=O)N[C@@H](CO)C(=O)N[C@@H](Cc1c[nH]cn1)C(=O)N[C@@H](CCCCN)C(=O)NCC(=O)N1[C@H](C(=O)N[C@@H](CCCC)C(=O)N2CCC[C@H]2CC(=O)N[C@@](C)(Cc2ccccc2)C(=O)O)C[C@@H]2CCCC[C@@H]21)C(=O)O) [SEQ ID NO: 611]
8.68,25.8,Palmitoyl-[γGlu][AEEA][AEEA][dQ]RP[NMeR][Cha]S[dH]KG[Oic][Nle][β3hP][d(β3hF)]-OH (SMILES CCCCCCCCCCCCCCCC(=O)N[C@@H](CCC(=O)NCCOCCOCC(=O)NCCOCCOCC(=O)N[C@H](CCC(N)=O)C(=O)N[C@@H](CCCNC(=N)N)C(=O)N1CCC[C@H]1C(=O)N(C)[C@@H](CCCNC(=N)N)C(=O)N[C@@H](CC1CCCCC1)C(=O)N[C@@H](CO)C(=O)N[C@H](Cc1c[nH]cn1)C(=O)N[C@@H](CCCCN)C(=O)NCC(=O)N1[C@H](C(=O)N[C@@H](CCCC)C(=O)N2CCC[C@H]2CC(=O)N[C@@H](CC(=O)O)Cc2ccccc2)C[C@@H]2CCCC[C@@H]21)C(=O)O) [SEQ ID NO: 617]
0.0956,0.55,Palmitoyl-[γGlu][AEEA][AEEA][dQ]RP[NMeR][Cha]SHKG[Oic][Nle]P[dAMF]-OH [SEQ ID NO: 607]
5.48,25.6,Palmitoyl-[γGlu][AEEA][AEEA][dQ]RP[NMeR][Cha]SHKG[Oic][Nle][Nip][dPhe(4-Cl)]-OH [SEQ ID NO: 602]
0.214,0.326,Palmitoyl-[γGlu][AEEA][AEEA][dQ]RP[NMeR][Cha]SHKG[Oic][Nle][Aib][αMeF]-OH (SMILES CCCCCCCCCCCCCCCC(=O)N[C@@H](CCC(=O)NCCOCCOCC(=O)NCCOCCOCC(=O)N[C@H](CCC(N)=O)C(=O)N[C@@H](CCCNC(=N)N)C(=O)N1CCC[C@H]1C(=O)N(C)[C@@H](CCCNC(=N)N)C(=O)N[C@@H](CC1CCCCC1)C(=O)N[C@@H](CO)C(=O)N[C@@H](Cc1c[nH]cn1)C(=O)N[C@@H](CCCCN)C(=O)NCC(=O)N1[C@H](C(=O)N[C@@H](CCCC)C(=O)NC(C)(C)C(=O)N[C@@](C)(Cc2ccccc2)C(=O)O)C[C@@H]2CCCC[C@@H]21)C(=O)O) [SEQ ID NO: 608]
0.831,2.5,Palmitoyl-[AC4Abu][AEEA][AEEA][dQ]RP[NMeR][Cha]SHKG[Pip][Nle][β3hF]-OH (SMILES CCCCCCCCCCCCCCCC(=O)NCCC(C(=O)O)C(=O)NCCOCCOCC(=O)NCCOCCOCC(=O)N[C@H](CCC(N)=O)C(=O)N[C@@H](CCCNC(=N)N)C(=O)N1CCC[C@H]1C(=O)N(C)[C@@H](CCCNC(=N)N)C(=O)N[C@@H](CC1CCCCC1)C(=O)N[C@@H](CO)C(=O)N[C@@H](Cc1c[nH]cn1)C(=O)N[C@@H](CCCCN)C(=O)NCC(=O)N1CCCC[C@H]1C(=O)N[C@@H](CCCC)C(=O)N[C@H](CC(=O)O)Cc1ccccc1) [SEQ ID NO: 579]
2.97,4.55,Palmitoyl-[AC4Abu][AEEA][AEEA][dQ]RP[NMeR][Cha]SHKG[Pip′][Nle]P[d(β3hF)]-OH [SEQ ID NO: 568]
1.72,4.62,Palmitoyl-[γGlu][AEEA][AEEA][dQ]RP[NMeR][Cha]SHKG[Oic][Nle][β3hP][dAMF]-OH [SEQ ID NO: 612]
0.423,0.512,Palmitoyl-[γGlu][AEEA][AEEA][dQ]RP[NMeR][Cha]SHKG[Oic][Nle][Aib][dPhe(4-Cl)]-OH (SMILES CCCCCCCCCCCCCCCC(=O)N[C@@H](CCC(=O)NCCOCCOCC(=O)NCCOCCOCC(=O)N[C@H](CCC(N)=O)C(=O)N[C@@H](CCCNC(=N)N)C(=O)N1CCC[C@H]1C(=O)N(C)[C@@H](CCCNC(=N)N)C(=O)N[C@@H](CC1CCCCC1)C(=O)N[C@@H](CO)C(=O)N[C@@H](Cc1c[nH]cn1)C(=O)N[C@@H](CCCCN)C(=O)NCC(=O)N1[C@H](C(=O)N[C@@H](CCCC)C(=O)NC(C)(C)C(=O)N[C@H](Cc2ccc(Cl)cc2)C(=O)O)C[C@@H]2CCCC[C@@H]21)C(=O)O) [SEQ ID NO: 604]
0.652,2.83,Palmitoyl-[AC4Abu][AEEA][AEEA][dQ]RP[NMeR][Cha]SHKG[Pip′][Nle][d(β3hF)]-OH [SEQ ID NO: 574]
1.29,3.58,Palmitoyl-[AC4Abu][AEEA][AEEA][dQ]RP[NMeR][Cha]SHKG[Oic][Nle][Inp][Phe(4-Cl)]-OH (SMILES CCCCCCCCCCCCCCCC(=O)NCCC(C(=O)O)C(=O)NCCOCCOCC(=O)NCCOCCOCC(=O)N[C@H](CCC(N)=O)C(=O)N[C@@H](CCCNC(=N)N)C(=O)N1CCC[C@H]1C(=O)N(C)[C@@H](CCCNC(=N)N)C(=O)N[C@@H](CC1CCCCC1)C(=O)N[C@@H](CO)C(=O)N[C@@H](Cc1c[nH]cn1)C(=O)N[C@@H](CCCCN)C(=O)NCC(=O)N1[C@H](C(=O)N[C@@H](CCCC)C(=O)N2CCC(C(=O)N[C@@H](Cc3ccc(Cl)cc3)C(=O)O)CC2)C[C@@H]2CCCC[C@@H]21) [SEQ ID NO: 587]
1.06,4.98,Palmitoyl-[γGlu][AEEA][AEEA][dQ]RP[NMeR][Cha]SHKG[Oic][Nle][αMeP][αMeF]-OH (SMILES CCCCCCCCCCCCCCCC(=O)N[C@@H](CCC(=O)NCCOCCOCC(=O)NCCOCCOCC(=O)N[C@H](CCC(N)=O)C(=O)N[C@@H](CCCNC(=N)N)C(=O)N1CCC[C@H]1C(=O)N(C)[C@@H](CCCNC(=N)N)C(=O)N[C@@H](CC1CCCCC1)C(=O)N[C@@H](CO)C(=O)N[C@@H](Cc1c[nH]cn1)C(=O)N[C@@H](CCCCN)C(=O)NCC(=O)N1[C@H](C(=O)N[C@@H](CCCC)C(=O)N2CCC[C@@]2(C)C(=O)N[C@@](C)(Cc2ccccc2)C(=O)O)C[C@@H]2CCCC[C@@H]21)C(=O)O) [SEQ ID NO: 610]
